Results on 6 molecules are retold here after PMC10497406, “PCNA recruits cohesin loader Scc2 to ensure sister chromatid cohesion” (Nature Structural & Molecular Biology, 2023).

B3: N-terminally His-tagged yeast Pol30 (PCNA) (natural protein, S. cerevisiae, UniProt P15873 1-258, looked up)
chain: MLEAKFEEASLFKRIIDGFKDCVQLVNFQCKEDGIIAQAVDDSRVLLVSLEIGVEAFQEYRCDHPVTLGMDLTSLSKILRCGNNTDTLTLIADNTPDSIILLFEDTKKDRIAEYSLKLMDIDADFLKIEELQYDSTLSLPSSEFSKIVRDLSQLSDSINIMITKETIKFVADGDIGSGSVIIKPFVDMEHPETSIKLEMDQPVDLTFGAKYLLDIIKGSSLSDRVGIRLSSEAPALFQFDLKSGFLQFFLAPKFNDEE
notes: Pol30 (PCNA), S. cerevisiae; no measurement of the oligomer here; also called HisPol30; yeast PCNA; not shown: His, N-terminal, kept

Common to all, as to conditions: both partners purified
Test [1] addresses T1, N-terminally His-tagged chicken PCNA (chicken, UniProt Q9DEA3 1-262).
T1 construct: PCNA, chicken; also called HisPCNA; recombinant chicken PCNA; not shown: His, N-terminal, kept
Put plainly: pull-down; GST–NIPBL fusions (chicken) on glutathione Sepharose 4B beads, recombinant N-terminally His-tagged chicken PCNA; blots with anti-PCNA and anti-GST.

For test [2], the target named is T2, GST–Scc2^C1100 (Scc2 amino acids 394–1493 fused to GST) (S. cerevisiae, UniProt Q04002 394-1493).
T2 construct: also called nearly full-length Scc2 fused to GST; not shown: GST, N-terminal, kept
T2 sequence (looked up): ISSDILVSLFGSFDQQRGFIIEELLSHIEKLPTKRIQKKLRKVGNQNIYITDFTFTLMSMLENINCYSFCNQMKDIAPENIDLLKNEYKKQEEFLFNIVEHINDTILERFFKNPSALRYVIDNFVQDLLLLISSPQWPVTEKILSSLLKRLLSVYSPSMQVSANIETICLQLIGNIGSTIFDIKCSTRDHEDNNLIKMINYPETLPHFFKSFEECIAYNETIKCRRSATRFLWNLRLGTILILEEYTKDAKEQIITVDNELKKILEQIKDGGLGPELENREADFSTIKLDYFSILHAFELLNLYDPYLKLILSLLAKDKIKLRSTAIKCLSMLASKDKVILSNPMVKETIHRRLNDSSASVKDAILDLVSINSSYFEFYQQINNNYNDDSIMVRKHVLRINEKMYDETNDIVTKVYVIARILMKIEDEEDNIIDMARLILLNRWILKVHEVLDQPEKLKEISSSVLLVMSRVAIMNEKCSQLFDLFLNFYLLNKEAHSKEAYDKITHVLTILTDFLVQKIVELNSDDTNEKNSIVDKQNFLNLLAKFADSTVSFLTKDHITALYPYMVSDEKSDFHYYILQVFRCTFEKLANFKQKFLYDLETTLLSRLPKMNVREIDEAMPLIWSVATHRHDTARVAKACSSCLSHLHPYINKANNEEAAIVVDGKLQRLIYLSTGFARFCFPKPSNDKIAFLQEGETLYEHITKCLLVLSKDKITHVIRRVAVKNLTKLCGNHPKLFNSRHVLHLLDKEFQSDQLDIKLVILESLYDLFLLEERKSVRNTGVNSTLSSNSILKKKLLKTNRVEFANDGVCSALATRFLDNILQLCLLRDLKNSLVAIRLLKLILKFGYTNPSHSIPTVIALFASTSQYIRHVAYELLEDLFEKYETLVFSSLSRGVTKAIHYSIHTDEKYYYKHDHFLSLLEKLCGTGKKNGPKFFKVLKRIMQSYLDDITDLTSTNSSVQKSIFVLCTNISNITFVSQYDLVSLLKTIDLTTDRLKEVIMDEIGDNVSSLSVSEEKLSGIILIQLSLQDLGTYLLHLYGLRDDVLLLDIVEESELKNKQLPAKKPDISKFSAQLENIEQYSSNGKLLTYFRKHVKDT
Nature of the test: pull-down; GST–Scc2 fusions on glutathione Sepharose 4B beads, purified His-tagged yeast Pol30 (2.5 μg) in 0.7 ml binding buffer (1× PBS, 150 mM NaCl, 1% Triton X-100), overnight at 4 °C; western blot with anti-Pol30.

For test [3], the target named is B3. Described as above.

T1 sequence (Q9DEA3 whole entry): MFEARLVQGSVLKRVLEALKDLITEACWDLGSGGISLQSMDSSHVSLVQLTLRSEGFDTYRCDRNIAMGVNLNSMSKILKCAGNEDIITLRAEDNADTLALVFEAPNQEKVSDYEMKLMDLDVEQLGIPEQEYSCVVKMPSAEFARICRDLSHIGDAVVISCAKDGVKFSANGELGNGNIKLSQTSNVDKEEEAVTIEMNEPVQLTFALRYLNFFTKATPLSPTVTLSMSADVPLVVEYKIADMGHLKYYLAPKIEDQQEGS

B1: GST–NIPBL-pip2 (chicken NIPBL amino acids 2764–2783, Q2769A,L2771A,Y2775A, fused to GST) (domain or fragment, UniProt F1NJ66 2764-2783, looked up)
chain: TNKVVATARSLAAAKDGTSS
notes: not shown: GST, N-terminal, kept
For the molecule B1, the binding result in test [1] is reported as “binds”.

B2: GST–NIPBL-PIP2 (chicken NIPBL amino acids 2764–2783 fused to GST) (domain or fragment, UniProt F1NJ66 2764-2783, looked up)
chain: TNKVVQTLRSLYAAKDGTSS
notes: as for B1
As for B2, the binding result in test [1] is “binds”.

In the case of B3, in test [2], the binding result was “binds”.

B4: GST–Scc2PIP (Scc2 residues 1476–1493 fused to GST) (domain or fragment, S. cerevisiae, UniProt Q04002 1476-1493, looked up)
chain: YSSNGKLLTYFRKHVKDT
notes: also called PIP of Scc2 fused to GST; last 18 amino acids of Scc2; not shown: GST, N-terminal, kept
Take B4: in test [3], the binding result is recorded as “binds”.

B5: GST–NIPBL^(C202 WT) (chicken NIPBL residues 2582–2783 fused to GST) (domain or fragment, UniProt F1NJ66 2582-2783, looked up)
chain: ANSKITEEVKRSIVKQYLDFKLLMEHLDPDEEEEDGEVSASTNARNKAITSLLGGGSPKNNAAETEDDESDGEDRGGGTSGSLRRSKRNSDSTELASQMNESVDVMDVIAICCPKYKDRPQIARVVQKTSNGFSVQWMAGSYSGSWTEAKRRDGRKLVPWVDTIKESDIIYKKIALTSANKLTNKVVQTLRSLYAAKDGTSS
notes: also called NIPBL C-terminal fragment (C202); not shown: GST, N-terminal, kept
For the molecule B5, the binding result in test [1] is “binds”.

B6: GST–NIPBL^(C202 pip1) (chicken NIPBL residues 2582–2783 with PIP1 mutated, fused to GST) (domain or fragment, UniProt F1NJ66 2582-2783, looked up)
chain: ANSKITEEVKRSIVKAYADAKLLMEHLDPDEEEEDGEVSASTNARNKAITSLLGGGSPKNNAAETEDDESDGEDRGGGTSGSLRRSKRNSDSTELASQMNESVDVMDVIAICCPKYKDRPQIARVVQKTSNGFSVQWMAGSYSGSWTEAKRRDGRKLVPWVDTIKESDIIYKKIALTSANKLTNKVVQTLRSLYAAKDGTSS
notes: also called NIPBL^Q2597A,L2599A,F2601A; not shown: GST, N-terminal, kept
As for B6, the binding result in test [1] is “binds”.
